Experimental findings from US20140271458A1 (AbbVie / Abbott, published 2014) are described below.

Experiment [1] addresses T1, Recombinant Human IL-17 (human, UniProt Q16552 20-155, limits assumed).
T1 sequence (looked up): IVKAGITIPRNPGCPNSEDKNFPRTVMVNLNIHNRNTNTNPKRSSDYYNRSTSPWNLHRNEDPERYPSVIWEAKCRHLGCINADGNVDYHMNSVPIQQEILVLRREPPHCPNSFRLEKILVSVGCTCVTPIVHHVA
Nature of the experiment: cell-based or functional assay.

For experiment [2], the target named is T1, Recombinant Human IL-17. Put plainly: SPR, Biacore T200, antibody captured, antigen 0.8-100 nM, 25 C. As to the method:
(§1) The BIACORE assay (GE, Healthcare Piscataway, N.J.) determined the affinity of antibodies or DVD-Ig proteins with kinetic measurements of on-rate and off-rate constants. Binding of antibodies or DVD-Ig proteins to a target antigen (for example, a purified recombinant target antigen) was determined by surface plasmon resonance-based measurements with a Biacore T200 using running HBS-EP+buffer from GE Healthcare at 25° C. AN chemicals were obtained from GE Healthcare unless otherwise described. For example, approximately 5000 RU of goat anti-mouse IgG, (Fcγ), fragment specific polyclonal antibody (Pierce Biotechnology Inc, Rockford, Ill.) diluted in 10 mM sodium acetate (pH 4.5) was directly immobilized across a CM5 research grade biosensor chip using a standard amine coupling kit according to manufacturer's instructions. Unreacted moieties on the biosensor surface were blocked with ethanolamine. Modified carboxymethyl dextran surface in flowcell 1 was used as a reference surface. Rate constants were derived by making kinetic binding measurements at different antigen concentrations ranging from 0.8-100 nM. Binding was recorded as a function of time and kinetic rate constants were calculated. In this assay, association rate was evaluated for 5 minutes and dissociation was monitored for 10 minutes. For kinetic screening analysis, rate equations derived from the 1:1 binding model were fitted simultaneously to association and dissociation phases of all injections (using global fit analysis with Rmax fit locally to account for capture variations) with the use of Biaevaluation software. Purified antibodies or DVD-Ig proteins were diluted in HEPES-buffered saline for capture across goat anti-mouse IgG specific reaction surfaces. Antibodies or DVD-Ig proteins to be captured as a ligand were injected over reaction matrices at a flow rate of 5 μl/minute. The association and dissociation rate constants, kₒₙ (M⁻¹s⁻¹) and koff (s⁻¹) were determined under a continuous flow rate of 50 μl/minute. Rate constants were derived by making kinetic binding measurements at different antigen concentrations ranging from 0.8-100 nM. Binding was recorded as a function of time and kinetic rate constants were calculated. In this assay, association rate was evaluated for 5 minutes and dissociation was monitored for 10 minutes.

Experiment [3] concerns the target T2, Recombinant Human IL-1b (human, UniProt P01584 117-269).
T2 construct: Bought reagent used in the Biacore analyses; also called IL-1β
The description is as above. The protocol: as §1

In experiment [4] the target is T2, Recombinant Human IL-1b. Nature of the experiment: cell-based or functional assay.
The target in experiment [5] is T1, Recombinant Human IL-17. Put plainly: SPR, Biacore T200, DVD-Ig captured, antigen 0.8-100 nM, 25 C. The protocol: as §1
Experiment [6] has as its target T2, Recombinant Human IL-1b. The experiment is described as above. As to the method: as §1

Bounds are passed on as bounds.

B1: AB420 (antibody, V domains shown)
VH: EVQLVQSGAEVKKPGSSVKVSCKASGGSFGGYGIGWVRQAPGQGLEWMGGITPFFGFADYAQKFQGRVTITADESTTTAYMELSGLTSDDTAVYYCARDPNEFWGGYYSTHDFDSWGQGTTVTVSS
VL: EIVLTQSPDFQSVTPKEKVTITCRASQDIGSELHWYQQKPDQPPKLLIKYASHSTSGVPSRFSGSGSGTDFTLTINGLEAEDAGTYYCHQTDSLPYTFGPGTKVDIKR
Turning to B1, the “C-Terminal VD IL17 Neutralization Assay (IC50 nM)” value in experiment [1] is 0.048 nM.

B2: AB461 (antibody, V domains shown)
VH: EVQLVQSGAEVKKPGESVKISCKASGGSFRSYGISWVRQAPGQGLEWMGGITHFFGITDYAQKFQGRVTITADESTTTAYMELSGLTSDDTAVYYCAREPNDFWGGYYDTHDFDSWGQGTTVTVSS
VL: EIVLTQSPDFQSVTPKEKVTITCRASQNIGSELHWYQQKPDQSPKLLIKYASHSISGVPSRFSGSGSGTDFTLTINGLEAEDAATYYCHQSDTLPHTFGQGTKVDIKR
notes: Parent anti-IL-17 antibody; also called AB461VH
Broadly, the Kd is the constant that tells how readily two partners part at equilibrium. As usually defined, the koff is a measure of how fast the partners let go of each other. One may read the kon as the second-order rate constant of association. Turning to B2, in experiment [2], the equilibrium dissociation constant (Kd) was 0.00086 nM, the koff amounted to 5.3e-06 s⁻¹ and the on-rate constant (kon) stood at 6.2e+06 M⁻¹ s⁻¹.

B3: AB270 (antibody, V domains shown)
VH: EVQLQESGPGLVKPSETLSLTCTVSGFSLSDYGVSWIRQPPGKGLEWLGLIWGGGDTYYNSPLKSRLTISKDNSKSQVSLKLSSVTAADTAVYYCAKQRTLWGYDLYGMDYWGQGTLVTVSS
VL: DTQVTQSPSSLSASVGDRVTITCITSTDIDVDMNWYQQKPGKPPKLLISQGNTLRPGVPSRFSSSGSGTDFTFTISSLQPEDFATYYCLQSDNLPLTFGQGTKLEIKR
notes: Parent anti-IL-1β antibody; also called AB270VH
As to B3, in experiment [3], the Kd turned out to be 0.08 nM, the koff turned out to be 0.00053 s⁻¹ and the kon was 6.6e+06 M⁻¹ s⁻¹. Besides, the “N-Terminal VD IL-1β Neutralization Assay (IC50 nM)” value in experiment [4] worked out at 0.239 nM.

B4: AB271 (antibody, V domains shown)
VH: EVQLQESGPGLVKPSETLSLTCTVSGFSLSDYGVSWIRQPPGKGLEWLGLIWGGGDTYYNSPLKSRLTISKDNSKSQVSLKLSSVTAADTAVYYCAKQRTLWGYDLYGMDYWGQGTLVTVSS
VL: DTVVTQSPAFLSVTPGEKVTITCITSTDIDVDMNWYQQKPDQPPKLLISQGNTLRPGVPSRFSSSGSGTDFTFTISSLEAEDAATYYCLQSDNLPLTFGQGTKLEIKR
notes: Parent anti-IL-1β antibody; also called AB271VH
As to B4, in experiment [3], the Kd came to 0.11 nM, the off-rate constant (koff) was 0.00051 s⁻¹ and the kon turned out to be 4.6e+06 M⁻¹ s⁻¹. In experiment [4], the “N-Terminal VD IL-1β Neutralization Assay (IC50 nM)” value was 0.301 nM.

B5: AB272 (antibody, V domains shown)
VH: EVQLVESGGGLVQPGGSLRLSCAVSGFTLSDYGVSWIRQAPGKGLEWLGLIWGGGDTYYNSPLKSRLTISKDNSKSTVYLQMNSLRAEDTAVYYCAKQRTLWGYDLYGMDYWGQGTLVTVSS
VL: ETTVTQSPSSLSASVGDRVTITCITSTDIDVDMNWYQQKPGKPPKLLISQGNTLRPGVPSRFSSSGSGTDFTFTISSLQPEDFATYYCLQSDNLPLTFGQGTKLEIKR
notes: Parent anti-IL-1β antibody; also called AB272VH
Turning to B5, in experiment [3], the Kd amounted to 0.14 nM, the koff came out at 0.00056 s⁻¹ and the kon came to 4e+06 M⁻¹ s⁻¹. Moreover, the “N-Terminal VD IL-1β Neutralization Assay (IC50 nM)” value in experiment [4] is 0.424 nM.

B6: DVD3415 (bispecific antibody, human IgG1)
heavy: EVQLVESGGGVVQPGRSLRLSCSASGFIFSRYDMSWVRQAPGKGLEWVAYISHGGAGTYYPDSVKGRFTISRDNSKNTLFLQMDSLRPEDTGVYFCARGGVTKGYFDVWGQGTPVTVSSGGGGSGGGGSEVQLVQSGAEVKKPGSSVKVSCKASGGSFGGYGIGWVRQAPGQGLEWMGGITPFFGFADYAQKFQGRVTITADESTTTAYMELSGLTSDDTAVYYCARDPNEFWGGYYSTHDFDSWGQGTTVTVSSASTKGPSVFPLAPSSKSTSGGTAALGCLVKDYFPEPVTVSWNSGALTSGVHTFPAVLQSSGLYSLSSVVTVPSSSLGTQTYICNVNHKPSNTKVDKKVEPKSCDKTHTCPPCPAPEAAGGPSVFLPPPKPKDTLMISRTPEVTCVVVDVSHEDPEVKFNWYVDGVEVHNAKTKPREEQYNSTYRVVSVLTVLHQDWLNGKEYKCKVSNKALPAPIEKTISKAKGQPREPQVYTLPPSREEMTKNQVSLTCLVKGFYPSDIAVEWESNGQPENNYKTTPPVLDSDGSFFLYSKLTVDKSRWQQGNVFSCSVMHEALHNHYTQKSLSLSPGK
light: DIQMTQSPSSLSASVGDRVTITCRASGNIHNYLTWYQQTPGKAPKLLIYNAKTLADGVPSRFSGSGSGTDYTFTISSLQPEDIATYYCQHFWSIPYTFGQGTKLQITRGGSGGGGSGEIVLTQSPDFQSVTPKEKVTITCRASQDIGSELHWYQQKPDQPPKLLIKYASHSTSGVPSRFSGSGSGTDFTLTINGLEAEDAGTYYCHQTDSLPYTFGPGTKVDIKRTVAAPSVFIFPPSDEQLKSGTASVVCLLNNFYPREAKVQWKVDNALQSGNSQESVTEQDSKDSTYSLSSTLTLSKADYEKHKVYACEVTHQGLSSPVTKSFNRGEC
notes: human kappa; also called DVD3415H; DVD3415L
B6: in experiment [5], the Kd is less than 0.0048 nM, the koff is less than 1e-06 s⁻¹ and the kon is 210000 M⁻¹ s⁻¹. Also, in experiment [6], the Kd was determined as 0.051 nM, the koff stood at 3.8e-05 s⁻¹ and the on-rate (kon) came to 740000 M⁻¹ s⁻¹. Further, the “N-Terminal VD IL-1β Neutralization Assay (IC50 nM)” value in experiment [4] was 0.027 nM. In addition, the “C-Terminal VD IL17 Neutralization Assay (IC50 nM)” value in experiment [1] was 0.091 nM.

B7: DVD3418 (bispecific antibody, human IgG1)
heavy: EVQLVESGGGVVQPGRSLRLSCSASGFIFSRYDMSWVRQAPGKGLEWVAYISHGGAGTYYPDSVKGRFTISRDNSKNTLFLQMDSLRAEDTAVYYCARGGVYKGYFDVWGQGTPVTVSSGGGGSGGGGSEVQLVQSGAEVKKPGSSVKVSCKASGGSFGGYGIGWVRQAPGQGLEWMGGITPFFGFADYAQKFQGRVTITADESTTTAYMELSGLTSDDTAVYYCARDPNEFWGGYYSTHDFDSWGQGTTVTVSSASTKGPSVFPLAPSSKSTSGGTAALGCLVKDYFPEPVTVSWNSGALTSGVHTFPAVLQSSGLYSLSSVVTVPSSSLGTQTYICNVNHKPSNTKVDKKVEPKSCDKTHTCPPCPAPEAAGGPSVFLPPPKPKDTLMISRTPEVTCVVVDVSHEDPEVKFNWYVDGVEVHNAKTKPREEQYNSTYRVVSVLTVLHQDWLNGKEYKCKVSNKALPAPIEKTISKAKGQPREPQVYTLPPSREEMTKNQVSLTCLVKGFYPSDIAVEWESNGQPENNYKTTPPVLDSDGSFFLYSKLTVDKSRWQQGNVFSCSVMHEALHNHYTQKSLSLSPGK
light: DIQMTQSPSSLSASVGDRVTITCRASGNIHNYLTWYQQTPGKAPKLLIYNAKTLADGVPSRFSGSGSGTDYTFTISSLQPEDIATYYCQHFWSIPYTFGQGTKLQITRGGSGGGGSGEIVLTQSPDFQSVTPKEKVTITCRASQDIGSELHWYQQKPDQPPKLLIKYASHSTSGVPSRFSGSGSGTDFTLTINGLEAEDAGTYYCHQTDSLPYTFGPGTKVDIKRTVAAPSVFIFPPSDEQLKSGTASVVCLLNNFYPREAKVQWKVDNALQSGNSQESVTEQDSKDSTYSLSSTLTLSKADYEKHKVYACEVTHQGLSSPVTKSFNRGEC
notes: human kappa; also called DVD3418H; DVD3418L
For B7, in experiment [5], the Kd is less than 0.0048 nM, the koff was less than 1e-06 s⁻¹ and the kon turned out to be 210000 M⁻¹ s⁻¹. Also, in experiment [6], the Kd is 0.034 nM, the koff was determined as 1.8e-05 s⁻¹ and the kon was determined as 540000 M⁻¹ s⁻¹. Moreover, the “N-Terminal VD IL-1β Neutralization Assay (IC50 nM)” value in experiment [4] turned out to be 0.018 nM. Also, in experiment [1], the “C-Terminal VD IL17 Neutralization Assay (IC50 nM)” value came to 0.068 nM.

B8: AB273 (antibody, V domains shown)
VH: EVQLVQSGAEVKKPGSSVKVSCKASGYTFTDYEIHWVRQAPGQGLEWMGVNDPESGGTFYNQKFDGRVTLTADESTSTAYMELSSLRSEDTAVYYCTRYSKWDSFDGMDYWGQGTTVTVSS
VL: DIQMTQSPSSLSASVGDRVTITCRASSGIISYIDWFQQKPGKAPKRLIYATFDLASGVPSRFSGSGSGTDYTLTISSLQPEDFATYYCRQVGSYPETFGQGTKLEIKR
notes: Parent anti-IL-17 antibody; also called AB273VH
Regarding B8, in experiment [2], the Kd is 0.0046 nM, the dissociation rate constant (koff) came out at 1.3e-05 s⁻¹ and the kon is 2.7e+06 M⁻¹ s⁻¹. Besides, in experiment [1], the “C-Terminal VD IL17 Neutralization Assay (IC50 nM)” value was 0.031 nM.
